Assay results published in US6344321, “Nucleic acid ligands which bind to hepatocyte growth factor/scatter factor (HGF/SF) or its receptor c-met” (Gilead Sciences, Inc.).

Molecular target: T1, HGF (hepatocyte growth factor/scatter factor) (UniProt P14210;P14210 P14210:32-494,P14210:495-728)
Test: filter; HBSMC, 37C
Conditions: tags: R&D Systems
Procedure: (§1) In binding reactions, RNA concentrations were kept as low as possible—between 1 and 20 pM—to ensure equilibrium in conditions of protein excess. Oligonucleotides were incubated for 15 minutes at 37° C. with varying amounts of the protein in 43 µl of the binding buffer. Thirty-two microliters of each binding mixture placed on pre-wet 0.45 µm nitrocellulose filters under suction. Each well was immediately washed with 0.5 ml binding buffer. The amount of radioactivity retained on the filters was quantitated by imaging. The radioactivity that bound to filters in the absence of protein was used for background correction. The percentage of input oligonucleotide retained on each filter spot was plotted against the corresponding log protein concentration. The nonlinear least square method was used to obtain the dissociation constant (K_d; reference Jellinek, Lynott et al. 1993, Proc. Natl. Acad. Sci. USA. 90:11227–31).

T1 sequence (P14210 32-494, chain 1 of 2): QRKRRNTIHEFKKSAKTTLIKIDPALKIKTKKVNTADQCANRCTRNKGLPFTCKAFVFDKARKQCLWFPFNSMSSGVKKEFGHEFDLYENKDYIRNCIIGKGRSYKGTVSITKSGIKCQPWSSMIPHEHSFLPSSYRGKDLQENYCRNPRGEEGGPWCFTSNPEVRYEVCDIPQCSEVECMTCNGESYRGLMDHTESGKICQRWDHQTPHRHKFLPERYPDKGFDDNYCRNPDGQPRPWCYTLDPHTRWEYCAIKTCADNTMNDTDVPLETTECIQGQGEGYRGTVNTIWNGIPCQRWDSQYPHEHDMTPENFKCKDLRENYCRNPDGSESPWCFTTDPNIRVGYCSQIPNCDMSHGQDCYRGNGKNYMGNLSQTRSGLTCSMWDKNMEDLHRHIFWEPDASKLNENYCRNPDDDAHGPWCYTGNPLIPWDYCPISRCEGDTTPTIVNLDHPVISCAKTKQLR
T1 sequence (P14210 495-728, chain 2 of 2): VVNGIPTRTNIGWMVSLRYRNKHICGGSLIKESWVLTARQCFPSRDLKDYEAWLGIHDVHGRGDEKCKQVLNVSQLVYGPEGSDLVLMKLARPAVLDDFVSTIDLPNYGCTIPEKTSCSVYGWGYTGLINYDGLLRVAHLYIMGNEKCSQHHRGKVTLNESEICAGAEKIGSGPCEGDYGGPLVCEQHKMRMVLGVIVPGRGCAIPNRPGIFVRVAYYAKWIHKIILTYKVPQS

Row | Binder | Kd
1 | 8-102 (ssRNA, 2'-F pyrimidines) RNA: GGGAGGACGAUGCGGCGAGUGCCUGUUUAUGUCAUCGUCCGUCGUCAGACGACUCGCCCGA | 0.06 nM
2 | 10-31 (ssRNA, 2'-F pyrimidines) RNA: GGGAGAUAAGAAUAAACGCUCAAGGGUUCCUGAUUGACCCUGUCUCUAGACCCUUCGACAGGAGGCUCACAACAGGC | 1.9 nM
3 | 10-63 (ssRNA, 2'-F pyrimidines) RNA: GGGAGAUAAGAAUAAACGCUCAAUGUGAUGUGAGGGCGUGCUUCCUAACGGUGUUCGACAGGAGGCUCACAACAGGC | 0.19 nM
4 | 10-58 (ssRNA, 2'-F pyrimidines) RNA: GGGAGAUAAGAAUAAACGCUCAAGGGGAGGCCCUUCAGCCGUCUCCUUGACCCUUCGACAGGAGGCUCACAACAGGC | 0.44 nM

Molecular target: T1, HGF (hepatocyte growth factor/scatter …)
Test: filter; one or two 5' G
Conditions: tags: R&D Systems
Procedure: as §1

Row | Binder | Kd
5 | GGAGUGAUCCUAUUUAUGCCGUCGCUUCUCGCCA (ssRNA, 2'-F pyrimidines) [Tr44] | 6.5 nM
6 | GGUGGGAACCUAUUUAUGUCAUCGUCUGUGCCCA (ssRNA, 2'-F pyrimidines) [Tr70] | 2.4 nM
7 | GGUGAUCACCUGUUUAUGCCAUCGUUCUGGGCCA (ssRNA, 2'-F pyrimidines) [Tr48] | 1.8 nM
8 | GGUGAUAACCUAUUUAUGACGUCGUGGCUCCCCA (ssRNA, 2'-F pyrimidines) [Tr42] | 6.1 nM
9 | GGGCGGCUCGAUGUCGUCUUAUCCCUUUGCCCCA (ssRNA, 2'-F pyrimidines) [Tr17] | 3 nM
10 | GGUCAGAAUGACUUUCAUAGCUCGCUUUCCCCCA (ssRNA, 2'-F pyrimidines) [Tr71] | 7.7 nM
11 | GGGUGACUCAAAAUGGUGAUCCUCGUUUCCGCCA (ssRNA, 2'-F pyrimidines) [Tr4] | 1.4 nM
12 | GGCGGUGUGAACCUGUUUAUGUCCGCGUACCCCA (ssRNA, 2'-F pyrimidines) [Tr7] | 0.67 nM
13 | GGCAGACGACUCGCCCGAAGGACGAUGCGGCA (ssRNA, 2'-F pyrimidines) [Tr5] | 28 nM
14 | GGGUUUGAGUGACGAUCGUCUUGUCCCAUGUGCA (ssRNA, 2'-F pyrimidines) [Tr15] | 8.8 nM
15 | GGUGUGAACCUGUUUAUGCCAUCUCGAGUCCCCA (ssRNA, 2'-F pyrimidines) [Tr20] | 3.4 nM
16 | GGGAGUUAUAUUUCGUCACCCGUUCCUUUGCCCCA (ssRNA, 2'-F pyrimidines) [Tr14] | 2.2 nM
17 | GGAUUGAUUCACUGCAUCCUUGACUCUUCCCCCA (ssRNA, 2'-F pyrimidines) [Tr1] | 7.3 nM
18 | GGGGUGACCCUUUUUAUGACAUCGCGUCUGGCCA (ssRNA, 2'-F pyrimidines) [Tr28] | 4 nM
19 | GGUGAAUUCCUCUGGCUGAAAAUGACUUGUGCCA (ssRNA, 2'-F pyrimidines) [Tr31] | 9.2 nM
20 | GGUGGGAACCUAUUUAUGUCAUCUCCGUCCCCA (ssRNA, 2'-F pyrimidines) [Tr45] | 1.7 nM
21 | GGCGUGAGCCUAUUUAUGUCAUCAUGUCUGUGCA (ssRNA, 2'-F pyrimidines) [Tr6] | 9 nM
22 | GGACAGUUUGUCUUCUAUAGCUCGUCGCCCCCA (ssRNA, 2'-F pyrimidines) [Tr59] | 7.2 nM
